Data: US20210147523A1 (TEIJIN PHARMA, published 2021)
Residue numbers refer to the chain shown, from its start.

B1: 65-0810G (antibody, IgG2b, V domains shown)
VH: EVHLVESGGGLVQPGRSMKLSCTASGFTFNNYYMAWVRQAPTKGLEWVASISTGGGYTYYRDSVKGRFTISRDNTGNTLYLQMDSLRSEDTATYYCARCWELPYWGQGVMVTVSS
VL: QFVLTQPNSVSTNLGSTVKLSCRRSSGNIGNNYVNWYRQHEGRSPTTMIYRDDTRPDGVPNRFSGSIDRSSNSALLTINNVRPEDEAYYFCQSYSGSIYIFGGGTKLTVL
B2: 33-0503E (antibody, IgG2b, V domains shown)
VH: EVQLVESGGGLVRPGGSMKLSCGASGFIFDNYYMTWVRQAPTKGLEWVASISSSGGNTYYRDSVRGRFTISRDNAGNTLSLQMGSLRAEDTATYHCAKEGYRGRYFDYWGQGVMVTVSS
VL: QVVLTQPNSVSTNLGSTVKLSCKRTTGNIGSNYVNWYQQHEGRSPTTMIYRDDERPDGVPDRFSGSIDRSSNSALLTINNVQTEDEAEYFCQSYSSGIIFGGGTKLTVL
B3: 50-0704C (antibody, IgG2b, V domains shown)
VH: EVQLVGSGGGLVQPGRSMKLSCEASGFTFSNHYMAWVRQAPTKGLEWVATISTGGGNTYYRDSVKGRFTISRDNARSTLSLQMDSLRSEDTATYYCARQDYSNYMGGFAYWGQGTLVTVSS
VL: QFVLTQPNSVSTNLGSTVKLSCTRSIGNIGNNYVNWYKQYEGRSPTTMIYRDDERPDGVPDRFSGSIDRSSNSALLTINSVQTEDEADYFCQSFSSGIFIFGGGTKLTVL
B4: 18-0211B (antibody, IgG2b, V domains shown)
VH: B3 VH with E1A, K43R, A75T, A97T, S102T
VL: B3 VL with M48L, E86G, K106T
B5: 89-1207D (antibody, IgG2b, V domains shown)
VH: B3 VH with T78I
VL: B3 VL with S80N, I98M
B6: 80-1104A (antibody, IgG2b, V domains shown)
VH: EVQLVETGGGLVQPGSSLKLSCSTSGFTFSETWMSWVRQAPGKGLEWVGLIKDKNSNYEANYAESVKGRFTISRDDSKRRVYLQMYTLRDQDTATYYCTSHEDFYYYSSYYFDYWGQGVMVTVSS
VL: DIVLTQSPATLSVTPGESVSLSCRASQGISTSIHWYQQKSNESPRLLIKYASQSMSGIPSRFSGSGSGTDFTLRINRVESEDFSVYYCQQSYNLPLTFGSGTKLEIKR
B7: 96-1403F (antibody, IgG2b, V domains shown)
VH: B6 VH with Q13R, S23A, E31D, G49A, Y58S, V66I, R79S, Y86N, S100R, S109G
VL: B6 VL with A9P, K39R, M55I, S56A, T72I, R74S, S91T, N93S, S100P, I106V
B8: 93-1310F (antibody, IgG2b, V domains shown)
VH: B6 VH with S23A, E31D, G49A, Y86F, Q117H
VL: B6 VL with E42G, M55I, S91T, N93S, K103R
B9: 64-0807A (antibody, IgG2b, V domains shown)
VH: EVQVVESGGGLVQPGRSMKLSCAALGFTFRDYYMAWVRQTPTKGLEWVAAISTGGGNTYYRDSVKGRFTISRDNAKSTLYLQMDSLRSDDTATYYCARNPYGNYFDYWGQGVMVTVSS
VL: QFVLSQPNSVSTNLGSTVKLSCKRSTGNIGSNYVHWYQRHEGRSPTTLIYRDDKRPNGVPDRFSGSIDRSSNSALLTINNVQTEDEADYFCQSYSGGMYLFGGGTKLTVL
B10: 83-1110B (antibody, IgG2b, V domains shown)
VH: EVQLQQSGPEFVRPGTSVKFSCKVSGGSITSYFIHFVKQRPGQGLEWIGKIDPEDDSTKYGEKFKNKATLTADTSSNTAFLKLSSLTSEDTAIYFCTTLTGLDYWGQGVMVTVSS
VL: DIQMTQSPPVLSAAVGDRVTLSCKASRSLNKNLDWYQQKHGETPKLLIYHTHNLQTGIPSRFSGSGSDTDYTLTISSLQTEDVATYYCYQYHSGWTFGGGTRLELRR
B11: 37-0511F (antibody, IgG2b, V domains shown)
VH: EVHLQQSGAALVRPRASVKLSCKVSGDSISRYYVHFVKQRPGQGLEWIGRIDPEDDTTKYSEKFKNRATLTADASSDTASLILSGLTSDDTATYFCSTLTGLDYWGQGVMVTVSS
VL: DIQMTQSPPVLSTSVGDRVTLRCKPSQNVHSKLDWYQQKHGEAPKLLIYYTHNLQTGIPSRFSGSGSGTDYTLTISSLQPEDVATYYCFQYYSGWTFGGGTKLEMKR
B12: 94-1311E (antibody, V domains shown)
VH: EVQLQQSGAGLVRPRTSVRLSCKISGDSITAYYVHFVKQRPGQGLEWIGRIDPEDDSTKYSEKFKNKATLTADVSSSTAYLILSSLTSDDSATYFCSTLTGLDYWGQGVMVTVSS
VL: B11 VL with T13A, R22S, P25A, N28S, S31N, T69S, Q79R, P80A
B13: 53-0707E (antibody, IgG2b, V domains shown)
VH: B11 VH with H3Q, A10E, A16T, S30T, N66K, R67K, D77N, S80Y, L83F, D89E
VL: B11 VL with P25A

molecular target: T1, human SPNS2 R200A mutant (human, UniProt Q8IVW8 1-549); test: flow cytometry
T1 sequence: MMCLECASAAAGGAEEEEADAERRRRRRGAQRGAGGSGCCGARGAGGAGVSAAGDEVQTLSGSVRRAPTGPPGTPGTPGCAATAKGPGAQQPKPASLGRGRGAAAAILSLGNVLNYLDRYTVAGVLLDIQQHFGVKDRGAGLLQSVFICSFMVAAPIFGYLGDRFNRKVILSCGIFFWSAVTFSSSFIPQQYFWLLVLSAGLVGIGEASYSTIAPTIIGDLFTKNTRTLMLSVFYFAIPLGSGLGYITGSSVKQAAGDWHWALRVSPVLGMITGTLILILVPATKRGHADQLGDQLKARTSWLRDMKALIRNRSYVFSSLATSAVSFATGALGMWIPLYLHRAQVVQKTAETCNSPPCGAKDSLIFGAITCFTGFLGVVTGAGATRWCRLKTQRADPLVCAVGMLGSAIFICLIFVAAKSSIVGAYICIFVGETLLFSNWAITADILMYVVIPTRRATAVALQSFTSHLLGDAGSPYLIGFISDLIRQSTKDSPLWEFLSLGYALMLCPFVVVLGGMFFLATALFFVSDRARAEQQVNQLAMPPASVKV

Row | Binder | binding ratio vs native type [ratio]
1 | B1 | < 0.5
2 | B2 | < 0.5

molecular target: T2, human SPNS2 K136A mutant (human, UniProt Q8IVW8 1-549); test: flow cytometry
T2 sequence: T1 sequence with K136A, A200R

Row | Binder | binding ratio vs native type [ratio]
3 | B1 | < 0.5
4 | B3 | < 0.5
5 | B4 | < 0.5
6 | B5 | < 0.5
7 | B6 | < 0.5
8 | B7 | < 0.5
9 | B8 | < 0.5
10 | B2 | < 0.5
11 | B9 | < 0.5

molecular target: T3, human SPNS2 W259A mutant (human, UniProt Q8IVW8 1-549); test: flow cytometry
T3 sequence: T1 sequence with A200R, W259A

Row | Binder | binding ratio vs native type [ratio]
12 | B1 | < 0.5
13 | B10 | < 0.5
14 | B11 | < 0.5
15 | B12 | < 0.5
16 | B13 | < 0.5
17 | B3 | < 0.5
18 | B2 | < 0.5
19 | B9 | < 0.5

molecular target: T4, human SPNS2 F133A mutant (human, UniProt Q8IVW8 1-549); test: flow cytometry
T4 sequence: T1 sequence with F133A, A200R

Row | Binder | binding ratio vs native type [ratio]
20 | B1 | < 0.5
21 | B3 | < 0.5
22 | B7 | < 0.5
23 | B8 | < 0.5

molecular target: T5, human SPNS2 Q130A mutant (human, UniProt Q8IVW8 1-549); test: flow cytometry
T5 sequence: T1 sequence with Q130A, A200R

Row | Binder | binding ratio vs native type [ratio]
24 | B3 | < 0.5
25 | B4 | < 0.5
